The results in this text go back to article PMC5406781, “Myxococcus xanthus DK1622 Coordinates Expressions of the Duplicate groEL and Single groES Genes for Synergistic Functions of GroELs and GroES” (Frontiers in Microbiology, 2017).

The data set concerns the molecule itself. The data set can be described thus: native gel or EMSA; native PAGE (no SDS or mercaptoethanol, run in ice-water) of extracts of E. coli BL21(DE3) cells expressing GroEL1, GroEL2 or GroES alone, or GroEL1/GroEL2 co-expressed with GroES. For orientation: Mobility shift assays separate free from complexed probe on a gel.

B1: Myxococcus xanthus DK1622 GroEL2 (natural protein, UniProt Q1D3Y5 1-547, looked up)
chain: MAAKEIFFHQSAREAILRGVRTLSDAVAVTLGPKGRNVVIEKSFGSPTITKDGVTVAKEIDLENKFENMGAQMVKEVASKTSDKAGDGTTTATVLARAIYEEGLKLVAAGHSPMDLKRGIDKAVEVVVGELKSLSKPTADKKAITQVGTISANGDETIGAIIADAMEKVGKEGVITVEEAKGLETTLDVVEGMQFDRGYVSPYFVTNRERMEAVLEDPYILISEKKVSSMQDMIPLLEQVARSGKPLIIIADDIEGEALATLVVNKIRGVLNVCAVKAPGFGDRRKEMLQDIAVLTGGTVVSEDLGHKFETLTLTDLGRAKRVTVDKDNTTVVDGVGTKAAIEGRIKLIRTQIDSVTSDYDREKLQERLAKLVGGVAVINVGAATETEMKEKKARVEDALHATRAAVEEGIVPGGGVAYLRALPALEKLKPGGEQDFGVAIIRRALQEPLRKIASNAGVEGAVVINKVREGTGAFGYNARTEVYEDLEKAGVIDPTKVERTALQNAASVASLLLTTEAMVAERPKGKAKGGGAGAGMPDYGGDDMDY
notes: printed Mw 58.1 kDa; no His-tag added; UniProt may number the two paralogues the other way round (groL1 for the stand-alone gene); also called Cpn60; chaperonin GroEL; source: E. coli BL21(DE3), pET22b (pET22b-GroEL2-NoHis); purified (100-kDa cut-off concentration, Superdex 200) for the pull-down, in cell extract for native PAGE; copies: 14
Consider B1, for which the stoichiometry N (usually a count of units in the complex or per binding partner) is 14.

B2: Myxococcus xanthus DK1622 GroEL1 (natural protein, UniProt Q1D2S1 1-549, looked up)
chain: MAKDILFDVRAREAILRGVNILADAVKVTLGPKGRNVVIEKSFGSPTITKDGVTVAKEIELENKFENMGAQMVKEVASKTSDVAGDGTTTATVLAQAIFREGAKLVAAGHNPMDIKRGIDKAVGAIVAELKKLAKPTKDKKEIAQVGTISANGDETIGTIIADAMEKVGKEGVITVEEAKGLETTLDVVEGMQFDRGYLSPYFVTDPERMEAALNDALILINEKKISSMKDLLPILEQVARAGKPLLIIAEDIEGEALATLVVNKIRGVLNVCAVKAPGFGDRRKAMLEDIATLTGGRMIAEDLGIKLDTITLQDLGRAKRITVDKDNTTIVDGAGGQQEIEARVKQIRAQIEETSSDYDREKLQERLAKLVGGVAVINVGAATETEMKEKKARVEDALNATRAAVEEGVVPGGGVAYIRCLKALDGLQLSGGEKFGVDIIRRAVEEPLRQIVGNGGLEGSVVVNKVKESSGPFGFNAATGTYEDLLAAGVIDPAKVSRTALQNAASVSSLMLTTEAMVAERPKEEKDLPAGGGMGGMGGMGGMGGMGM
notes: printed Mw 57.9 kDa; no His-tag added; UniProt may number the two paralogues the other way round (groL2 for the gene next to groES); also called Cpn60; chaperonin GroEL; source: E. coli BL21(DE3), pET22b (pET22b-GroEL1-NoHis); purified (100-kDa cut-off concentration, Superdex 200) for the pull-down, in cell extract for native PAGE; copies: 14
For B2, the “stoichiometry N” value is 14.

B3: Myxococcus xanthus DK1622 GroES without His-tag (natural protein, UniProt Q1D2S2 1-96, looked up)
chain: MKIRPLQDRLIVKRVAEENKTKGGLFIPDTAKEKPLEGKVIAVGNGKVQEDGKVRPLDIKAGDTILFSKYAGTEIKLDGEEHLILREEDVLGVIEK
notes: printed Mw 10.7 kDa; construct named NoHis; also called Cpn10; GroES-NoHis; source: E. coli BL21(DE3), pET28a-GroES-NoHis, in cell extract
With B3, the “stoichiometry N” value was found to be 7.
